Experimental data: US20190127480A1 (Regeneron, published 2019)
Changes are numbered by the printed parent chain.

B1: H1H5755B (antibody, human IgG1, V domains shown)
VH: EVQLVESGGGVVQPGRSLRLSCAASGFTFSNYGMHWVRQAPGKGLEWVTVILHDGSYKYYADSVKGRFTISRDNSKNTLHLQMNSLRTEDTAVYYCAKGPMFRGVPYNHYYGMDVWGQGTTVTVSS
VL: DIQMTQSPSSLSASVGDRVTITCRASQGIRNDLGWYQQKPGKAPKRLIYAASSLQSGVSSRFSGSGSGTEFTLTISSLQPEDFATYYCLQHNSYPYTFGQGTKVEIKR
notes: H1H: human IgG1 Fc; divalent
B2: H1H5788P (antibody, V domains shown)
VH: EVQLVESGGGLVQPGRSLRLSCAASGFTFDDYTMHWVRQAPGKGLEWVSGISWNSGSIGYADSVKGRFTISRDNAKNSLYLQMNSLRAEDTALFYCAKDQSGYGHYYYGMDVWGQGTTVTVSS
VL: EIVMTQSPATLSVSPGERATLSCRASQSVSSNLAWYQQKPGQAPRLLIYGASTRATDIPARFSGSGSGTEFTLTISSLQSEDFAVYHCQQYNNWPLTFGGGTKVEIK
notes: H1H: human IgG1 Fc; divalent
B3: H1H2712N (antibody, human IgG1, V domains shown)
VH: B2 VH with R16G, S25T, Y32F, A61V, F94Y, Q100N, H105Y
VL: B2 VL with Q27H, S31R, L33S, D57G, V85I, H87Y
notes: H1H: human IgG1 Fc; divalent
B4: H2M3547N (antibody, V domains shown)
VH: EAQLVESGGGLVQPGRSLRLSCTTSGFTFDDYTMHWVRQAPGKGLEWISDISWNGGTKGYADSVKGRFTISRDNAKNSLYLQMDSLRGEDTALYYCVKDKSGYGHFYFGLDVWGQGTTVTVSS
VL: DIQMTQSPSSLTASVGDRVTFTCRASQSISRHLSWYQQKPGKAPKLLIYAASSLESGVPSRFSGSGSGTDFTLTISSLHPEDFATYYCQQSYSNPPITFGQGTRLEIK
notes: Hybridoma antibody, human variable regions, mouse IgG2 Fc
B5: H2M3540N (antibody, V domains shown)
VH: QVHLEESGGGVVQPGRSLRLSCSASGFTFSSYAMHWVRQAPGKGLEWVAVIWYDGTNKYYLDSVKGRFTISRDNSKNTLFLQMNSLRAEDTAVYYCARDRGSIITHWGQGTLVTVSS
VL: DIQMTQSPSSLSASIGDRVTITCRASQNISSYLNWYQQKPGKAPKLLIYAASSLQSGVPSRFSGSGSGTDFTLTISSLQPEDFATYYCQQTYSTPPITFGQGTRLEIK
notes: as for B4
B6: H2M3563N (antibody, V domains shown)
VH: EVHLVESGGGLVQPGRSLRLSCAASGFTFDDYTMHWVRQAPGKGLEWVSDISWNSGSIGYADSVKGRFTVSRDNAKNSLYLQMNSLRGEDTALYYCAKDMSGYGHYGKYGMDVWGQGTTVTVSS
VL: B5 VL with I15V, N28S, S30R, A43V, S76N, E81D, T94N
notes: as for B4
B7: H1M3544N (antibody, V domains shown)
VH: EVQLVESGGGLVQPGRSLRLSCAASGFTFDDYTMHWVRQVPGKGLEWVSGISWNSGSLAYADSVKGRFTISRDNAKNSLYLQMNSLHPEDTALYYCVKDGSGYGHYSYYGLDVWGQGTTVTVSS
VL: not shown
notes: Hybridoma antibody, human variable regions, mouse IgG1 Fc
B8: H2M3548N (antibody, V domains shown)
VH: B2 VH with T28K, D30A, T33A, G50E, A61V, F94Y, A97V, Q100K, Y108I, T120I
VL: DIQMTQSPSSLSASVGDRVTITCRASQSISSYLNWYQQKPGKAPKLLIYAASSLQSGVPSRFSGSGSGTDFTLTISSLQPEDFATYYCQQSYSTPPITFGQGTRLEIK
notes: as for B4
B9: H2M2779N (antibody, V domains shown)
VH: B2 VH with R16G, S25T, Y32F, A61V, F94Y, Q100N, H105Y
VL: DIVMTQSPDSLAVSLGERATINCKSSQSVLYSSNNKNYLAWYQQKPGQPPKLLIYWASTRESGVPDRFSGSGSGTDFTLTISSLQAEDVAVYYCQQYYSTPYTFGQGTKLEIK
notes: as for B4
B10: H2M2862N (antibody, V domains shown)
VH: QVQLVESGGGVVQPGRSLRLSCAASGFTFRSYGMHWVRQAPGKGLEWVAMIYYDGNNKKYADSVRGRFTISRDNSKNTLYLQMNSLRVEDTAVYFCARGPGYNWLDPWGQGTLVTVSS
VL: B2 VL with S31R, T72I, T74N, V85L, H87Y, N92S, K103E
notes: as for B4
B11: H1M2712N (antibody, V domains shown)
VH: B2 VH with R16G, S25T, Y32F, A61V, F94Y, Q100N, H105Y
VL: B2 VL with Q27H, S31R, L33S, D57G, V85I, H87Y
notes: Mouse IgG1 Fc form
B12: H2M2778N (antibody, V domains shown)
VH: EVQLVESGGGLVQPGRSLRLSCAASGFTFDDYSMHWVRQAPGKGLEWVSGISWNSRSIDYADSVKGRFTISRDNAKNSLYLQMNSLRAEDTALYYCVKDNSGYGRYYYYGMDVWGQGTTVSVSS
VL: B2 VL with E1K, S31G, D57S, H87F, Q90H, N92Y, K107R
notes: as for B4
B13: H2M2777N (antibody, V domains shown)
VH: B10 VH with A23I, K59Y, V88A, E89D
VL: B2 VL with D57G, H87Y, W94R
notes: as for B4
B14: H2M2886N (antibody, V domains shown)
VH: B10 VH with Y32F, K43R, Y53F, N56K, K59Y, Q82E, N84S, V88A
VL: EIVMTQSPATLSVSPGERVILSCRASQSISRNLAWYQQKPGQAPRLLIYGATTRATGVPARFSGSGSGTEFTLTISSLQSEDFAVFYCQQYNNRPLTFGGGTEVEIK
notes: as for B4
B15: H1M3549N (antibody, V domains shown)
VH: B6 VH with H3Q, A23V, T28P, D30A, V70I, G88T, G104A, G107F, K108Y
VL: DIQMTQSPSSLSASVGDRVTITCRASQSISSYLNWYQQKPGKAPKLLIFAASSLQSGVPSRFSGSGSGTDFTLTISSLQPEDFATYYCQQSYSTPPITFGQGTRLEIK
notes: as for B7
B16: H1M3613N (antibody, V domains shown)
VH: EVQLVESGGGLVQPGRSLKLSCTASGFTFADYTMHWVRQGPGKGLEWVSDISWNSGSKGYADSVKGRFTISRDNAKNSLYLQMNSLRTEDTALYYCAKDMSGYAHYYYYALDVWGQGTTVTVSS
VL: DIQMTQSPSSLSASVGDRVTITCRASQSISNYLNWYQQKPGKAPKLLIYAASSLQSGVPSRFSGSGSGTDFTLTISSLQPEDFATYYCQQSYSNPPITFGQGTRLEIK
notes: as for B7
B17: H2M3541N (antibody, V domains shown)
VH: B6 VH with H3Q, Q13R, S57T, V70I, G88P, G104A, G107Y, K108Y
VL: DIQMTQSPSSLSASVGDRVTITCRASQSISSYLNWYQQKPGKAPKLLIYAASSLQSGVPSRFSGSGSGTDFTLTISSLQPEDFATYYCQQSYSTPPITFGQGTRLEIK
notes: as for B4
B18: H2M3543N (antibody, V domains shown)
VH: B6 VH with H3Q, G104A, K108Y
VL: B5 VL with I15V, N28S, S30R, S31N, A43V, T91S, T94N
notes: as for B4
B19: H1M3542N (antibody, V domains shown)
VH: B16 VH with K19R, T23V, T28P, G40A, L93F, Y107F, A110G, L111M
VL: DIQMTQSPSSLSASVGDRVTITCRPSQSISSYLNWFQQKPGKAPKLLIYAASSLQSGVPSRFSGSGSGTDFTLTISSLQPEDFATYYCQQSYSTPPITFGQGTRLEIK
notes: as for B7
B20: H1H5752P (antibody, human IgG1, V domains shown)
VH: QVQLVESGGGVVQPGRSLRPSCAASGFSFRDYGMHWVRQAPGKGLEWMAHIWYNGKNKYYADSVKGRFTISRDNSKNTLYLQMNSLRPEDTAVYYCARDGVSARGTPFDYWGQGTLVTVSS
VL: ETTLTQSPAFMSAAPGDKVSISCIASQYIDDDVNWYQQKPGETAIFIIQEASTLVPGISPRFSGSGYGTHFTLTINNIDSEDAAFYFCLQHDNFPYTFGQGTKLEIK
notes: H1H: human IgG1 Fc; divalent
B21: H1H5782P (antibody, human IgG1, V domains shown)
VH: EVQLVESGGGLVQPGRSLRLSCAASGFTFDDYAMHWVRQAPGKGLEWVSGISWNSGSKDYADSVKGRFTISRDNTRNSLFLQMNSLRTEDTALYYCAKDKSGYGSFYYGMDVWGQGTTVTVSS
VL: not shown
notes: H1H: human IgG1 Fc; divalent

Molecular target: T1, Soluble heterodimeric CD3 protein (hCD3-epsilon/hCD3-delta) with either a human Fc tag (hFcΔAdp/hFc) or a … (human, UniProt P07766 23-126; P04234 22-105)
T1 construct: also called hCD3ε/δ; not shown: Fc tag: human (hFcΔAdp/hFc)
Test: SPR Biacore 25C antigen-capture
Procedure: (§1) Measurements were conducted on a T200 Biacore™ instrument.
In the antigen-capture format, heterodimeric CD3 protein was captured using a rabbit anti-mouse Fc or mouse anti-human Fc and the respective antibodies were injected over the captured antigen.
(§2) Kinetic association (kₐ) and dissociation (kd) rate constants were determined by processing and fitting the data to a 1:1 binding model using Scrubber 2.0 curve fitting software. Binding dissociation equilibrium constants (KD) and dissociative half-lives (t₁₁₂) were calculated from the kinetic rate constants as: KD (M)=kd/kₐ; and t_{1/2} (min)=(ln 2/(60*kd). NT=not tested; NB=no binding observed.

T1 sequence (P07766 23-126 limits assumed, stated change not applied, chain 1 of 2): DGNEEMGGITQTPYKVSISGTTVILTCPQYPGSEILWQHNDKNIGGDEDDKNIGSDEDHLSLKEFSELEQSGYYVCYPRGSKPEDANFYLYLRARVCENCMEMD
T1 sequence (P04234 22-105 limits assumed, stated change not applied, chain 2 of 2): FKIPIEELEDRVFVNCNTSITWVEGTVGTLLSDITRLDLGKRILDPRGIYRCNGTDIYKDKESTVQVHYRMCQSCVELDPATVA

Row | Kd | T½ | koff | kon | Binder
1 | 0.936 nM | 57 min | 0.000201 s⁻¹ | 215000 M⁻¹ s⁻¹ | B1
2 | 2.33 nM | 70 min | 0.000164 s⁻¹ | 70600 M⁻¹ s⁻¹ | B2
3 | 0.971 nM | 133 min | 8.68e-05 s⁻¹ | 89300 M⁻¹ s⁻¹ | B3

Molecular target: T2, Soluble heterodimeric CD3 protein (hCD3-epsilon/hCD3-delta) with a human Fc tag (hFcΔAdp/hFc) or a mouse Fc … (human, UniProt P07766 23-126; P04234 22-105)
T2 construct: also called hCD3ε/δ; not shown: Fc tag: human (hFcΔAdp/hFc); which tag was used in Ta
Test: SPR Biacore, 25 C, antibody-capture format
Procedure: as §1
(§3) Soluble heterodimeric CD3 protein (hCD3-epsilon/hCD3-delta; SEQ ID NOs:1652/1653) with either a human Fc tag (hFcΔAdp/hFc; SEQ ID NOs:1683/1684) or a mouse Fc tag (mFcΔAdp/mFc; SEQ ID NOs:1685/1686) was injected over the antibody captured surface and the binding response was recorded. Heterodimeric CD3 protein was purified using the method described in Davis et al. (US2010/0331527).
as §2

T2 sequence (P07766 23-126 limits assumed, stated change not applied, chain 1 of 2): as the sequence (P07766 23-126 limits assumed, stated change not applied, chain 1 of 2) above
T2 sequence (P04234 22-105 limits assumed, stated change not applied, chain 2 of 2): as the sequence (P04234 22-105 limits assumed, stated change not applied, chain 2 of 2) above

Row | Kd | T½ | koff | kon | Binder
4 | 15.9 nM | 33 min | 0.000347 s⁻¹ | 21800 M⁻¹ s⁻¹ | B4
5 | 16.2 nM | 19 min | 0.000611 s⁻¹ | 37700 M⁻¹ s⁻¹ | B5
6 | 3.66 nM | 97 min | 0.000119 s⁻¹ | 32400 M⁻¹ s⁻¹ | B6
7 | – | 82 min | – | – | B7
8 | 130 nM | 2 min | 0.00504 s⁻¹ | 38700 M⁻¹ s⁻¹ | B8
9 | 10.5 nM | 51 min | 0.000228 s⁻¹ | 21800 M⁻¹ s⁻¹ | B9
10 | 80.7 nM | 4 min | 0.003 s⁻¹ | 37200 M⁻¹ s⁻¹ | B10
11 | 23.5 nM | 53 min | 0.000219 s⁻¹ | 9320 M⁻¹ s⁻¹ | B11
12 | 8.9 nM | 61 min | 0.000189 s⁻¹ | 21300 M⁻¹ s⁻¹ | B12
13 | 43.9 nM | 7 min | 0.00163 s⁻¹ | 37000 M⁻¹ s⁻¹ | B13
14 | 8.96 nM | 18 min | 0.000653 s⁻¹ | 72900 M⁻¹ s⁻¹ | B14
15 | 77.6 nM | 13 min | 0.000919 s⁻¹ | 11800 M⁻¹ s⁻¹ | B15
16 | 15.7 nM | 38 min | 0.000304 s⁻¹ | 19300 M⁻¹ s⁻¹ | B16
17 | 189 nM | 9 min | 0.00135 s⁻¹ | 7100 M⁻¹ s⁻¹ | B17
18 | 30 nM | 51 min | 0.000226 s⁻¹ | 7530 M⁻¹ s⁻¹ | B18
19 | 21.4 nM | 23 min | 0.000508 s⁻¹ | 23700 M⁻¹ s⁻¹ | B19

Molecular target: T1, Soluble heterodimeric CD3 protein …
Test: SPR Biacore 25C antibody-capture
Procedure: as §1, §3, §2

Row | Kd | T½ | koff | kon | binding result | Binder
20 | 57.5 nM | 24 min | 0.000472 s⁻¹ | 8210 M⁻¹ s⁻¹ | – | B1
21 | – | – | – | – | no binding | B20
22 | 101 nM | 40 min | 0.000291 s⁻¹ | 2880 M⁻¹ s⁻¹ | – | B2
23 | 88.2 nM | 43 min | 0.00027 s⁻¹ | 3060 M⁻¹ s⁻¹ | – | B3
24 | – | – | – | – | no binding | B21
